Assays:
[1] = molecular target: T1, DDB1-CUL4-associated factor 1 adaptor (DCAF1) (UniProt Q9Y4B6 1-1507); test: co-immunoprecipitation, HEK-293 cells with 20 µM MG132 (FIG. 23 legend)
T1 construct: Endogenous or overexpressed in HEK-293 cells, in cell extracts; also called VprBP

[2] = molecular target: T2, EZH2 H689A mutant (catalytically inactive mutant, MT) (UniProt Q15910 1-746); test: binding of EZH2 WT or MT with RORα in cell extracts (FIG. 15)
T2 construct: also called EZH2 MT; H689A mutant (MT) of EZH2
T2 sequence (Q15910 whole entry H689A): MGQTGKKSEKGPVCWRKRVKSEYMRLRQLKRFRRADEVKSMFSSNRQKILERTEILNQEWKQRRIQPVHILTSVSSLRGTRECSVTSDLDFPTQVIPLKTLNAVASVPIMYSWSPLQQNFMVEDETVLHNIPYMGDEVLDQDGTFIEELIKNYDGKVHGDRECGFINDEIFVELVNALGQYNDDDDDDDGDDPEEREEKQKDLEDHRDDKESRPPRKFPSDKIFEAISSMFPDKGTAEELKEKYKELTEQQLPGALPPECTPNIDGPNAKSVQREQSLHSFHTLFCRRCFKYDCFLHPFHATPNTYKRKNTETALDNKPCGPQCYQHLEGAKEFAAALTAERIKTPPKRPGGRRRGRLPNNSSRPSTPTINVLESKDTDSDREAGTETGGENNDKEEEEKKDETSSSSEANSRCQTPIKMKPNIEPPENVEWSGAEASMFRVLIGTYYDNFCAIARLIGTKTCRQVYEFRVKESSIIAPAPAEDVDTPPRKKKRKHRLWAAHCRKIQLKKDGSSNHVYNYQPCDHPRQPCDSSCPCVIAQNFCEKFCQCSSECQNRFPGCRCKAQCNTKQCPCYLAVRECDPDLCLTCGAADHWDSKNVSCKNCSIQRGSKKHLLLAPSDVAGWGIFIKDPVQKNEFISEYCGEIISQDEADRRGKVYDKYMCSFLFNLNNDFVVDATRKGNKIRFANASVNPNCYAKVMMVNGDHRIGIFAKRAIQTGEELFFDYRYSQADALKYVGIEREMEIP

[3] = molecular target: T3, Enhancer of Zeste Homolog 2 lysine methyltransferase (EZH2) wild type (UniProt Q15910 1-746); test: co-immunoprecipitation of endogenous proteins, HEK-293 cells with MG132 (FIG. 3)
T3 construct: Endogenous (HEK-293) or overexpressed, in cell extracts; also called EZH2 WT
T3 sequence (Q15910 whole entry): as the sequence (Q15910 whole entry H689A) above, with A689H counted along it

Measured: binding result

T1 sequence (Q9Y4B6 whole entry): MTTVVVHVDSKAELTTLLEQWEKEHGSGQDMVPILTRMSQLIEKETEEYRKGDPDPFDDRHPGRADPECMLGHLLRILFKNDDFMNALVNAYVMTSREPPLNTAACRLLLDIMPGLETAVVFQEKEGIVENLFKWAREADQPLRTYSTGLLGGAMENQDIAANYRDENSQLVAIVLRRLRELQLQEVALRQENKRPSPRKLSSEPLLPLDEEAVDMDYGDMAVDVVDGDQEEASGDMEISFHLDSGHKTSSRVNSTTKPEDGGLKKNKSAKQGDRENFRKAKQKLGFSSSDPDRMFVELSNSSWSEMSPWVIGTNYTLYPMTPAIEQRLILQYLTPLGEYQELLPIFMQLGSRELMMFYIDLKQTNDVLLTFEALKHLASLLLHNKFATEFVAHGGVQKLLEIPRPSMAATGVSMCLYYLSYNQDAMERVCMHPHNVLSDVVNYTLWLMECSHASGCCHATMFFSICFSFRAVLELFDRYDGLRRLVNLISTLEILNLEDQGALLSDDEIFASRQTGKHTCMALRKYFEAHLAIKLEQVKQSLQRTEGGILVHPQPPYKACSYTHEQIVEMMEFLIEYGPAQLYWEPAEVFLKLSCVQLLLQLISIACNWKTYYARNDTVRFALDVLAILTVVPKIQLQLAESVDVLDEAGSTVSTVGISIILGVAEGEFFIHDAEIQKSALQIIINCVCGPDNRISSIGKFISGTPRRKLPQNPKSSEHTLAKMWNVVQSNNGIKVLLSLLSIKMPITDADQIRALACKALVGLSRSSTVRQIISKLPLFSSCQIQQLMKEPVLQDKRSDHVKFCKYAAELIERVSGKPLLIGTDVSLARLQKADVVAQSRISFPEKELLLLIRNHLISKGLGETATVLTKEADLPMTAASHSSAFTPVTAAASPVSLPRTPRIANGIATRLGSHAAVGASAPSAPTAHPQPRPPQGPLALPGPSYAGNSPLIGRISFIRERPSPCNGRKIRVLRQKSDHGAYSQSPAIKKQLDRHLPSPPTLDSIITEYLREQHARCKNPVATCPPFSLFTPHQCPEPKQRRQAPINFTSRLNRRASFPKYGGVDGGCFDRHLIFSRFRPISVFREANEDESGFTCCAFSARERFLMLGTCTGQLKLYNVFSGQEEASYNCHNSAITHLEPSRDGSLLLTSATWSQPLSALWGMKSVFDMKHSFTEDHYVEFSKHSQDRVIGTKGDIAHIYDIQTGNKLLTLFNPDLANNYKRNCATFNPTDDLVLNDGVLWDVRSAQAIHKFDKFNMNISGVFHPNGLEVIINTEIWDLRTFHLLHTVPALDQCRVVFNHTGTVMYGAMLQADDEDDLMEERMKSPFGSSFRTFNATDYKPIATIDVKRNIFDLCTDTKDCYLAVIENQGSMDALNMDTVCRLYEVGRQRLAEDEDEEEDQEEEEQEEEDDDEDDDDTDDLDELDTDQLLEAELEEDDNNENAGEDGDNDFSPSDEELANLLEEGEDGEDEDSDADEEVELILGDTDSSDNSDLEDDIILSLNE

B1: retinoic acid-related orphan nuclear receptor α (RORα) wild type (receptor, UniProt P35398-2 1-523, looked up)
chain: MESAPAAPDPAASEPGSSGADAAAGSRETPLNQESARKSEPPAPVRRQSYSSTSRGISVTKKTHTSQIEIIPCKICGDKSSGIHYGVITCEGCKGFFRRSQQSNATYSCPRQKNCLIDRTSRNRCQHCRLQKCLAVGMSRDAVKFGRMSKKQRDSLYAEVQKHRMQQQQRDHQQQPGEAEPLTPTYNISANGLTELHDDLSNYIDGHTPEGSKADSAVSSFYLDIQPSPDQSGLDINGIKPEPICDYTPASGFFPYCSFTNGETSPTVSMAELEHLAQNISKSHLETCQYLREELQQITWQTFLQEEIENYQNKQREVMWQLCAIKITEAIQYVVEFAKRIDGFMELCQNDQIVLLKAGSLEVVFIRMCRAFDSQNNTVYFDGKYASPDVFKSLGCEDFISFVFEFGKSLCSMHLTEDEIALFSAFVLMSADRSWLQEKVKIEKLQQKIQLALQHVLQKNHREDGILTKLICKVSTLRALCGRHTEKLMAFKAIYPDIVRLHFPPLYKELFTSEFEPAMQIDG
modifications: K38 mono-methylated by EZH2 in cells (the fraction methylated is not stated)
notes: Endogenous protein of HEK-293 cells in some co-immunoprecipitations, 3x-Flag-tagged (3x-Flag-CMV-RORα) in others; the tag is not written as a piece; also called RORα WT; Flag-RORα
binds: [1] | [2] | [3]

Reference: patent publication US20150105326A1 (SEOUL NATIONAL UNIVERSITY SNU R AND D FOUNDATION, published 2015)
